The values below come from US20040115734A1 (VLAAMS INTERUNIVERSITAIR INSTITUUT VOOR BIOTECHNOLOGIE VZW, published 2004).

The target of test [1] is T1, TLN/256C clone of the pAD-GAL4 mouse hippocampal two-hybrid library (mouse, UniProt Q60625 662-917).
T1 sequence (looked up): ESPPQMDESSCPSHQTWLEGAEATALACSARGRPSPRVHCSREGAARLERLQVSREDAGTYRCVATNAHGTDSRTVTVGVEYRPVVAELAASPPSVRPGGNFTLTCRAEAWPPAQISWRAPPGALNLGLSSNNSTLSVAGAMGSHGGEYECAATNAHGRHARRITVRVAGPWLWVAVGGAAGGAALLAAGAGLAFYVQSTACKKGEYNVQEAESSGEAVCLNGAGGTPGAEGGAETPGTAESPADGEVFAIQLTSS
In words: yeast two-hybrid screen, His+ selection and β-galactosidase filter lift. The source says:
Endogenous TLN could be precipitated from Triton X-100 brain extracts using recombinant GST fusion proteins containing the 39 C-terminal residues of PS1 or PS2 (PS1/39C, FIG. 1, Part B). The binding was salt dependent (FIG. 1, Part C). […] We detected a weak signal for endogenous holo-APP only after long exposure (FIG. 1, Part D). […] Although the PS1-NTF/ CTF is Triton-X100 sensitive, minor amounts of PS1-NTF were also detected in precipitates of Triton-X100-extracted membranes. In the presence of 2% CHAPS however, both PS1-NTF and PS1-CTF were recovered on the beads as both fragments remain non-covalently bound under these conditions (Capell et al., 1998). […] Since CHAPS is less denaturing than TX100, it is possible that other proteins of the complex cause steric hindrance under these conditions (Capell et al., 1998).
Mouse hippocampal mRNA was used to generate a primary lambda library that was converted to a pAD-GAL4 plasmid library by in vivo mass excision (HybriZAP, Stratagene). The sequence coding for the C-terminal eight amino acids of PS1 was cloned into the pBD-GAL4 vector. Yeast was transformed simultaneously with the bait and the library plasmids using the lithium-acetate method (Gietz et al., 1995). His⁺ colonies were restreaked onto selection agar plates and assayed for lacZ gene expression by the β-galactosidase filter lift assay.

The target of test [2] is T2, GST-PS1/1-81N (UniProt P49768 1-81).
T2 construct: range 1-81; Lacks the first transmembrane domain of PS1; also called PS1 N-terminus fused to GST; GST-fused with the N-terminus of PS1; not shown: glutathione S-transferase (GST) encoded by vector pGEX4T-1 (Pharmacia Biotech)
In words: GST pull-down of in vitro translated [35S]-labeled TLN constructs, autoradiogram. How it is done: (§1) Part C. Total: autoradiogram of the translated, [³⁵S]-methionine labeled TLN constructs used for the binding reaction. Similar amounts of input material are used. Note the tendency of the intracellular domain (IC) to oligomerize.
(§2) Part D. Mapping of the binding domain of TLN. […] Radiolabeled translated products (Total) were assayed for binding to GST-PS1/39C (third panel), GST-PS1/1-81N (fourth panel) or GST alone (not shown). Binding becomes virtually abolished when the N-terminal 5 amino acids (Val⁸²⁹-Trp⁸³³) of the transmembrane region of TLN are deleted (construct 8 in top panel).

The target in test [3] is T3, GST alone (UniProt P08515 1-218 = GST).
T3 construct: Negative control, immobilized on glutathione beads; also called GST-beads
The description is as above. How it is done: as §1, §2

In a further test the target is T4, GST-TLN/256C (mouse, UniProt Q60625 662-917).
T4 construct: Immobilized on glutathione beads; not shown: glutathione S-transferase (GST) encoded by vector pGEX4T-1 (Pharmacia Biotech)
T4 sequence (looked up): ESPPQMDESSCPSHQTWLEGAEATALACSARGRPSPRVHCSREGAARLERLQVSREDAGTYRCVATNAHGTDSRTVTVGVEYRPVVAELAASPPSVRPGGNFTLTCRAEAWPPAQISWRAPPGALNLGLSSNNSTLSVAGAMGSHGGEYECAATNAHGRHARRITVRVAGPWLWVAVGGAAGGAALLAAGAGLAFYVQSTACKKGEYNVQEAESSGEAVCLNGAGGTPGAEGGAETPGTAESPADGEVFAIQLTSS
In words: GST pull-down from 1% Triton-X100 or 2% CHAPS mouse brain extracts, western blot. How it is done:
GST alone was used as a negative control. PS1-CTF was predominantly detected in the bound fraction of low salt 1% Triton-X100 brain extracts. […] The difference between the intensity of the bands is due to different affinities of the pabs as shown for the crude extract (“Total” in first lane). Binding was largely abolished at high salt concentrations (400 mM).
Murine cortices were homogenized in 250 mM sucrose containing 10 mM Tris-HCL pH 7.4, 1 mM EDTA (De Strooper et al., 1999). Nuclei and tissue fragments were removed by low speed centrifugation. Microsomal membranes pelleted by high-speed centrifugation (50K rpm, 1 hour) were resuspended in LSB containing 1% Triton X-100 or 2% CHAPS. Aliquots (1 mg/ml) of the cleared extracts (55K rpm, 1 hour) were incubated overnight (4° C.) with immobilized GST fusion proteins. Beads were washed in low salt extraction buffer containing 0.5% Triton X-100 and bound proteins were analyzed by SDS-PAGE and western blotting.
On the technique in general: Immunoblotting shows a protein as a band on a membrane.

For test [4], the target named is T3, GST alone. In words: GST pull-down of [35S]-labeled C-terminal APP-stubs expressed in neurons; data not shown.
Test [5] has as its target T2, GST-PS1/1-81N. In words: GST pull-down of [35S]-labeled C-terminal APP-stubs expressed in neurons.

T3 sequence (P08515 whole entry): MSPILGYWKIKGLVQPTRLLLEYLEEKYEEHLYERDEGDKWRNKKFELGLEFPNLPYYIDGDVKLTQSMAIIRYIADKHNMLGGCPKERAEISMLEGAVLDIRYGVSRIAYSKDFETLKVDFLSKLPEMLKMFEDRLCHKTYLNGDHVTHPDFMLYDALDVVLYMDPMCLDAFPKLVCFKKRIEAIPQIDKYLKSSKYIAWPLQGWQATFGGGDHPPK

B1: PS1-C8 bait (C-terminal eight amino acids of PS1 in pBD-GAL4) (other, UniProt P04386 1-147, looked up)
chain: MKLLSSIEQACDICRLKKLKCSKEKPKCAKCLKNNWECRYSPKTKRSPLTRAHLTEVESRLERLEQLFLLIFPREDLDMILKMDSLQDIKALLTGLFVQDNVNKDAVTDRLASVETDMPLTLRQHRISATSSSEESSNKGQRQLTVSLAFHQFYI
Turning to B1, the binding result in test [1] is “binds”.

B2: intracellular domain (IC) of TLN (in vitro translated) (other, mouse, UniProt Q60625 855-917, looked up)
chain: AFYVQSTACKKGEYNVQEAESSGEAVCLNGAGGTPGAEGGAETPGTAESPADGEVFAIQLTSS
notes: domain: intracellular domain (IC); also called IC domain of TLN
Regarding B2, the binding result in the test with GST-PS1/1-81N [2] and with GST alone [3] was “no binding” each time.

B3: ductin (endogenous, mouse brain extract) (other, UniProt P63082 1-155, looked up)
chain: MADIKNNPEYSSFFGVMGASSAMVFSAMGAAYGTAKSGTGIAAMSVMRPELIMKSIIPVVMAGIIAIYGLVVAVLIANSLTDGITLYRSFLQLGAGLSVGLSGLAAGFAIGIVGDAGVRGTAQQPRLFVGMILILIFAEVLGLYGLIVALILSTK
On to B3, for which the binding result with GST-TLN/256C was “no binding”.

B4: BAP31 (endogenous, mouse brain extract) (other, UniProt Q61335 2-245, looked up)
chain: SLQWTTVATFLYAEVFAVLLLCIPFISPKRWQKVFKSRLVELVVTYGNTFFVVLIVILVLLVIDAVREILKYDDVTEKVNLQNNPGAMEHFHMKLFRAQRNLYIAGFSLLLSFLLRRLVTLISQQATLLASNEAFKKQAESASEAAKKYMEENDQLKKGAAEDGDKLDIGNTEMKLEENKSLKNDLRKLKDELASTKKKLEKAENEALAMQKQSEGLTKEYDRLLEEHAKLQASVRGPSVKKEE
Take B4: the binding result with GST-TLN/256C is reported as “no binding”.

B5: APP-C59 (other, UniProt P05067 712-770, looked up)
chain: IATVIVITLVMLKKKQYTSIHHGVVEVDAAVTPEERHLSKMQQNGYENPTYKFFEQMQN
notes: domain: γ40-cleaved C-terminal fragment (APP-C59); also called γ40-cleaved cytoplasmic domain of APP
On to B5, for which the binding result in the test with GST alone [4] and with GST-PS1/1-81N [5] was “no binding” each time.
